Values belong to the molecule of their own block, whether it stands above or below them.
Columns and labels:
[1] = molecular target: T1, UGT88C14 (KN9204 allele of TraesCS2B01G012000) (Triticum aestivum, UniProt Z9F0T2E170); test: LC-MS glucosyltransferase assay; type: biochemical; settings: UDP-glucose as donor, Tris-HCl pH 7.5, 10 mM MgCl2, 37 °C; mainly 7-O-glucosylation
T1 construct: full-length natural allele from KN9204, StrepII-tagged, expressed in and purified from N. benthamiana
T1 sequence (Z9F0T2E170 1-489): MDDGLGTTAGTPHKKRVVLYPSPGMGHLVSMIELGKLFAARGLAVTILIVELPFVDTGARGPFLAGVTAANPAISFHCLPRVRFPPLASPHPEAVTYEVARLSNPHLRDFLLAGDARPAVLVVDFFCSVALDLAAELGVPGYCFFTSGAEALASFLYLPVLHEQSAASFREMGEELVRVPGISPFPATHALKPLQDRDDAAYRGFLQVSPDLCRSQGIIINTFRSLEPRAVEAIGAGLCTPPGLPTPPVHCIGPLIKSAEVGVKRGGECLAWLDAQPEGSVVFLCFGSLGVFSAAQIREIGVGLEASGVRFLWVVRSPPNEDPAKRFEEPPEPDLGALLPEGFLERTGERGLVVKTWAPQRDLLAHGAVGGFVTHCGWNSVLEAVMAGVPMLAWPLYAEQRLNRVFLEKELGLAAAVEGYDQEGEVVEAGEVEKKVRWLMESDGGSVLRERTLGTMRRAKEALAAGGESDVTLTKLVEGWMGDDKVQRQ

[2] = molecular target: T2, UGT88C13 (TraesCS2B01G012000) (Triticum aestivum, UniProt A0A3B6BZ82); test: LC-MS glucosyltransferase assay; type: biochemical; settings: UDP-glucose as donor, Tris-HCl pH 7.5, 10 mM MgCl2, 37 °C; mainly 7-O-glucosylation
T2 construct: gene LOC123043080; also cloned in pGEX-6p-1 (GST)
T2 sequence (A0A3B6BZ82 1-489): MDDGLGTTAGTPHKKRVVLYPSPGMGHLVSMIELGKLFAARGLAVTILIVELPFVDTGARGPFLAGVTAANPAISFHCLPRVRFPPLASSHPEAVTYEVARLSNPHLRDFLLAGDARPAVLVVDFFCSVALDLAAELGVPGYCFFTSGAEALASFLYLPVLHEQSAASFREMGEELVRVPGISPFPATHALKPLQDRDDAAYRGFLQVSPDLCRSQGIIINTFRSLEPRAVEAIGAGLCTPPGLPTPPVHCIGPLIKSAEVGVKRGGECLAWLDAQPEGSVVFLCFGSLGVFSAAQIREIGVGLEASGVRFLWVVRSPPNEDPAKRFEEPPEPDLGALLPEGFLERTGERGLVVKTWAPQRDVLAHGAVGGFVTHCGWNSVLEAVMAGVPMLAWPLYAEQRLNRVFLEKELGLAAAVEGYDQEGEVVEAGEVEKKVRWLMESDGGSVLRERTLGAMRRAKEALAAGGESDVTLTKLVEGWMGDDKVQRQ

purified protein [3] = substrate: O=c1c(O)c(-c2ccc(O)cc2)oc2cc(O)cc(O)c12; test: purified protein; settings: UDP-glucose as donor, Tris-HCl pH 7.5, 10 mM MgCl2, 37 °C, mainly 7-O-glucosylation
purified protein [4] = substrate: O=c1cc(-c2ccc(O)cc2)oc2cc(O)cc(O)c12; test: purified protein; settings: UDP-glucose as donor, Tris-HCl pH 7.5, 10 mM MgCl2, 37 °C, mainly 7-O-glucosylation
[5] = substrate: O=c1cc(-c2ccc(O)c(O)c2)oc2cc(O)cc(O)c12; test: LC-MS glucosyltransferase assay; type: biochemical, Triticum aestivum; settings: UDP-glucose as donor, Tris-HCl pH 7.5, 10 mM MgCl2, 37 °C, mainly 7-O-glucosylation

Km [1]: 21.8 ± 9.15 µM
Molecule: O=c1cc(-c2ccc(O)cc2)oc2cc(O)cc(O)c12 [apigenin]

Molecule: O=c1c(O)c(-c2ccc(O)c(O)c2)oc2cc(O)cc(O)c12 [quercetin]
Km [2]: > 1000 µM

B1: UGT88C13 (TraesCS2B01G012000) (Triticum aestivum) (protein)
chain: MDDGLGTTAGTPHKKRVVLYPSPGMGHLVSMIELGKLFAARGLAVTILIVELPFVDTGARGPFLAGVTAANPAISFHCLPRVRFPPLASSHPEAVTYEVARLSNPHLRDFLLAGDARPAVLVVDFFCSVALDLAAELGVPGYCFFTSGAEALASFLYLPVLHEQSAASFREMGEELVRVPGISPFPATHALKPLQDRDDAAYRGFLQVSPDLCRSQGIIINTFRSLEPRAVEAIGAGLCTPPGLPTPPVHCIGPLIKSAEVGVKRGGECLAWLDAQPEGSVVFLCFGSLGVFSAAQIREIGVGLEASGVRFLWVVRSPPNEDPAKRFEEPPEPDLGALLPEGFLERTGERGLVVKTWAPQRDVLAHGAVGGFVTHCGWNSVLEAVMAGVPMLAWPLYAEQRLNRVFLEKELGLAAAVEGYDQEGEVVEAGEVEKKVRWLMESDGGSVLRERTLGAMRRAKEALAAGGESDVTLTKLVEGWMGDDKVQRQ
notes: also cloned in pGEX-6p-1 (GST)
Km (purified protein [3]): 20.33 ± 5.75 µM | Km (purified protein [4]): 19.47 ± 6.76 µM | Km [5]: 22.13 ± 6.54 µM

Reference: publication PMC7383920, “Metabolomics analysis and metabolite‐agronomic trait associations using kernels of wheat (Triticum aestivum) recombinant inbred lines” (The Plant Journal, 2020)
